# According to patent US20230146939A1, “TREATMENT FOR HUMAN CORONAVIRUS INFECTION” (THE ADMINISTRATORS OF THE TULANE EDUCATIONAL FUND, priority 2020, published 2023):
# Molecular target: α5β1 integrin, P08648
# Assay: competition ELISA, α5β1-coated plate, inhibition of trimeric spike binding
# Chain of α5β1 integrin, P08648 (P08648 42-995, chain 1 of 2): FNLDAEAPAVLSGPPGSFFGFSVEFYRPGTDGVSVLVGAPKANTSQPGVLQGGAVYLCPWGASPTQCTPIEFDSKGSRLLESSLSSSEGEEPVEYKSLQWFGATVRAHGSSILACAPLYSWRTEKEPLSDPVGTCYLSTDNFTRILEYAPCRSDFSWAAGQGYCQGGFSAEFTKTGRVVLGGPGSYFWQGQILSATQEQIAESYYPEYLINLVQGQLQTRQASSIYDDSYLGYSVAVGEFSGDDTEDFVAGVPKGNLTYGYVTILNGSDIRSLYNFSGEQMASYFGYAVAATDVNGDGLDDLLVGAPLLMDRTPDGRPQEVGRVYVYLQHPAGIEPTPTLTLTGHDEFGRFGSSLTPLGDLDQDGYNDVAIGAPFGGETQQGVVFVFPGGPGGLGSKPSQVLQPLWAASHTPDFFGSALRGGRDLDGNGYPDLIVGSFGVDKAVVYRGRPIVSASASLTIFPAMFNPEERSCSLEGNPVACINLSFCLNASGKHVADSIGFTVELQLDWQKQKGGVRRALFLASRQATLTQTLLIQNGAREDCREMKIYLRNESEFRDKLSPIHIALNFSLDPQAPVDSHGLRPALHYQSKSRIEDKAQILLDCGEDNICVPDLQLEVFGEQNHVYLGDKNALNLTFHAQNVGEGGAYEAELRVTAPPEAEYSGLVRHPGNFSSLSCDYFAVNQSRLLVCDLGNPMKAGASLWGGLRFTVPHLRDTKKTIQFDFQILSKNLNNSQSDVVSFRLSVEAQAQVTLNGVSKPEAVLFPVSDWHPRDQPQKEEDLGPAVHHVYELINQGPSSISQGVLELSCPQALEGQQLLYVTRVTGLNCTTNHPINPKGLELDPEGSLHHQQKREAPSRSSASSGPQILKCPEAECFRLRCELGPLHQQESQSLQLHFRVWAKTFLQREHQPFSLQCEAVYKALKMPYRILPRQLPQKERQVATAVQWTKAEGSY
# Chain of α5β1 integrin, P08648 (P05556 21-728, chain 2 of 2, further chain): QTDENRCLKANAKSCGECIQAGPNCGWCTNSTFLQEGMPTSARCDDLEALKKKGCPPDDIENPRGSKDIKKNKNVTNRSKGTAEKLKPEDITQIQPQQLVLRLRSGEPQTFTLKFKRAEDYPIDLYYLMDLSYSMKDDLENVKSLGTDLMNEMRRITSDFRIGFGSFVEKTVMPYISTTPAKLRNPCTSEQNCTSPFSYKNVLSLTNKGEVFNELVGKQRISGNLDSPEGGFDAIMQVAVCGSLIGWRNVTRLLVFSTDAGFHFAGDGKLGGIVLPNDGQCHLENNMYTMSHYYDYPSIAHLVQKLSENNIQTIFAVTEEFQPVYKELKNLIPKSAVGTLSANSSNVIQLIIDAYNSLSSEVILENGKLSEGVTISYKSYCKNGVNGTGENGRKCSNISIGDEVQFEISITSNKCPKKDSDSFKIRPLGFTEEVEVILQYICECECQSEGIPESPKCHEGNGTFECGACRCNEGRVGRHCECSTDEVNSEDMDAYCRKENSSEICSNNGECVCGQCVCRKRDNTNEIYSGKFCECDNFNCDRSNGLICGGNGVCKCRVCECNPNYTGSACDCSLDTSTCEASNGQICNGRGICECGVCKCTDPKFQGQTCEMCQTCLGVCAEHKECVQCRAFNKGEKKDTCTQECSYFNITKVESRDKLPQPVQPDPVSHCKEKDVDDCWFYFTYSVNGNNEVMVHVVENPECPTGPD
binder,measurement,value
PHSCN (modifications not checked) [ATN-161],most effective dose tested,100 nM
